Experimental data as given in US20110313230A1.

Experiments:
wild-type EGFR (human) [1] = molecular target: wild-type EGFR (human) (UniProt P00533); experiment: immunohistochemistry, glioblastoma pre-typed: EGFR amplified, no de2-7 EGFR expression
de2-7 EGFR (human) = de2-7 EGFR (human) (UniProt P00533); experiment: immunohistochemistry, glioblastoma pre-typed: EGFR amplified, de2-7 EGFR expressed
wild-type EGFR (human) [2] = molecular target: wild-type EGFR (human) (UniProt P00533); experiment: Scatchard, 125I-528 on A431 cells

## mAb528 (antibody)
wild-type EGFR (human) [1]
  percent of immunoreactive cells: > 75%
de2-7 EGFR (human)
  percent of immunoreactive cells: > 75%
wild-type EGFR (human) [2]
  receptors per cell (receptors per cell): 2e+06
